Results: patent US20190309079A1 (Regeneron, published 2019)

T1: human LEPR CRH1 (D1,D2)-MMH (human, UniProt P48357 22-339, limits assumed)
T1 construct: domain: CRH1 (D1,D2)
T1 sequence (looked up): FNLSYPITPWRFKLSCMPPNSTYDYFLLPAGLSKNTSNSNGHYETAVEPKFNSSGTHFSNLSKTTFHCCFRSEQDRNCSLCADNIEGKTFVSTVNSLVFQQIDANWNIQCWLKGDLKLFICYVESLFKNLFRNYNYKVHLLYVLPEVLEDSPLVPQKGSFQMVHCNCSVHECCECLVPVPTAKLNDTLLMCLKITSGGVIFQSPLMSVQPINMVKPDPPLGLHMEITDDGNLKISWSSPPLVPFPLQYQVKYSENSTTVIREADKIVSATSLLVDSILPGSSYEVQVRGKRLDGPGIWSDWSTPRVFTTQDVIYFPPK

T2: human LEPR Ig-CRH2-FNIII-MMH (human, UniProt P48357 330-839, limits assumed)
T2 construct: domain: Ig-CRH2-FNIII
T2 sequence (looked up): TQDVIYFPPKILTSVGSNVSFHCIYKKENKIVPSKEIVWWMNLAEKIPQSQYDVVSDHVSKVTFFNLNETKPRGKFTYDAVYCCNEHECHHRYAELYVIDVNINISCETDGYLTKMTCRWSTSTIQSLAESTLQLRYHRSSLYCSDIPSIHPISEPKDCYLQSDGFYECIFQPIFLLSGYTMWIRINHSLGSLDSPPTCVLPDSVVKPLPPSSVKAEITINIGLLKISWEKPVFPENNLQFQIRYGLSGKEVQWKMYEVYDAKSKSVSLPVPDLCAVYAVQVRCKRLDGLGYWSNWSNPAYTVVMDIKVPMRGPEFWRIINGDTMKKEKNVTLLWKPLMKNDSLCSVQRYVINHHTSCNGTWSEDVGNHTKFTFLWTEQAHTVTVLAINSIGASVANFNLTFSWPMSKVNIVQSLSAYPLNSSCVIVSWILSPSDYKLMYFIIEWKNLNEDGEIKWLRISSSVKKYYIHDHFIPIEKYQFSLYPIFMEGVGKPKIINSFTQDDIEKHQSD

T3: human LEPR FNIII-MMH (human, UniProt P48357 636-839, limits assumed)
T3 construct: domain: FNIII
T3 sequence (looked up): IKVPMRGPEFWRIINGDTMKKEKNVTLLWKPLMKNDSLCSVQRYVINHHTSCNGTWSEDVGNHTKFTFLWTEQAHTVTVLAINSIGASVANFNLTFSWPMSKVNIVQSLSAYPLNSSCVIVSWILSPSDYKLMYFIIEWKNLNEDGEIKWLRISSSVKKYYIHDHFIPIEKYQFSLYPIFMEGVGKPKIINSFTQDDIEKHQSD

T4: human LEPR CRH2-MMH (human, UniProt P48357 428-634, limits assumed)
T4 construct: domain: CRH2
T4 sequence (looked up): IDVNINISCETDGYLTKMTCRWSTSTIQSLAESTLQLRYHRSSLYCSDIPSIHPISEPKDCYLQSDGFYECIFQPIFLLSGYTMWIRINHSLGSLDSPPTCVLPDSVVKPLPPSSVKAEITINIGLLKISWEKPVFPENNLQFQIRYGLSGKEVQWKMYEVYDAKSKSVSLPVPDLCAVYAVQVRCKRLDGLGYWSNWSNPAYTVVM

T5: human LEPR CRH1-Ig (D2,D3)-MMH (human, UniProt P48357 230-427, limits assumed)
T5 construct: domain: CRH1-Ig (D2,D3)
T5 sequence (looked up): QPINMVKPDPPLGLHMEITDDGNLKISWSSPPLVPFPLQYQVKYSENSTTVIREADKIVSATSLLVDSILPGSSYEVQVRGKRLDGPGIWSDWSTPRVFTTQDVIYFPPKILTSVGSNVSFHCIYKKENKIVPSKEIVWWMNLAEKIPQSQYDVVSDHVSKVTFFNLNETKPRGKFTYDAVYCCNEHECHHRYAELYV

T6: human LEPR CRH1-Ig (D1,D2,D3)-MMH (human, UniProt P48357 22-427, limits assumed)
T6 construct: domain: CRH1-Ig (D1,D2,D3); also called human LEPR CRH1 (D1,D2,D3)-MMH
T6 sequence (looked up): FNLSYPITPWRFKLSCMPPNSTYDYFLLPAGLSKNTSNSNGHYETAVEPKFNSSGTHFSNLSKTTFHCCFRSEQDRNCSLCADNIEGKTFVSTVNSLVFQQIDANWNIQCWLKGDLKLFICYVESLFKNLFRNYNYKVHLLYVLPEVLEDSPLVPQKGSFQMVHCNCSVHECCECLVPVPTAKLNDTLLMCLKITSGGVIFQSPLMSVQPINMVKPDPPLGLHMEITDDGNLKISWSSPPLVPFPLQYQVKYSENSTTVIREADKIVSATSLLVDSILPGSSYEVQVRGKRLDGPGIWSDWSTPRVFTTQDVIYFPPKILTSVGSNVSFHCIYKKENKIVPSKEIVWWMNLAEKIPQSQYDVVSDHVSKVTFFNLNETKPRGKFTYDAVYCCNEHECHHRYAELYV


Key:
[1] = molecular target: T1, human LEPR CRH1 (D1,D2)-MMH; assay: Luminex, myc-captured protein on beads
Method: (§1) Aliquots of microspheres with immobilized anti-myc monoclonal antibodies, prepared as described above, were added individually to 1 mL of the each of these protein supernatants. The microspheres were gently mixed, incubated for two hours at 25° C., washed twice with 1 mL of DBPS, centrifuged to remove the supernatant and finally resuspended in 1 mL of DPBS buffer. […] of anti-myc IgG coupled microspheres from individual reactions with full length human LEPR and with each of the human LEPR domain proteins were withdrawn and mixed together in 3.6 mL of PBS+20 mg/mL BSA+0.05% sodium azide (blocking buffer).
(§2) From this mixed pool, 75 μL of microspheres were plated per well on a 96 well filter plate (Millipore, Cat. No: MSBVN1250) and mixed with 25 μL of individual anti-human LEPR monoclonal antibodies (0.5 or 5 μg/mL), incubated for two hours at 25° C. and then washed twice with 200 μL of DPBS with 0.05% Tween 20 (washing buffer). […] After 30 minutes, the samples were washed twice with 200 µL of washing buffer and resuspended in 150 μL of wash buffer. The Median Fluorescence intensity (MFI) of the microspheres was measured in a Luminex Analyzer.

[2] = molecular target: T7, human LEPR extracellular domain expressed with a C-terminal myc-myc-hexahistidine tag (hLEPR.mmh) (human, UniProt P48357 22-839); assay: Luminex, myc-captured protein on beads
T7 construct: tag included in the entry; also called human LEPR-MMH; monomeric human LEPR
Method: as §1, §2

[3] = molecular target: T2, human LEPR Ig-CRH2-FNIII-MMH; assay: Luminex, myc-captured protein on beads
Method: as §1, §2

[4] = molecular target: T3, human LEPR FNIII-MMH; assay: Luminex, myc-captured protein on beads
Method: as §1, §2

[5] = molecular target: T4, human LEPR CRH2-MMH; assay: Luminex, myc-captured protein on beads
Method: as §1, §2

[6] = molecular target: T5, human LEPR CRH1-Ig (D2,D3)-MMH; assay: Luminex, myc-captured protein on beads
Method: as §1, §2

[7] = molecular target: T6, human LEPR CRH1-Ig (D1,D2,D3)-MMH; assay: Luminex, myc-captured protein on beads
Method: as §1, §2

[8] = molecular target: extracellular domain of Macaca fascicularis LEPR (amino acids 22-837 of XP_005543194.1, T827A) fused with the … (Macaca fascicularis; human); assay: cell-based or functional assay

| Luminex MFI [1] | Luminex MFI [2] | Luminex MFI [3] | Luminex MFI [4] | Luminex MFI [5] | Luminex MFI [6] | Luminex MFI [7] | EC50 (M); STAT3-Luc reporter, IMR-32/STAT3-Luc/MfLEPR cells [8] | Binder |
| --- | --- | --- | --- | --- | --- | --- | --- | --- |
| 682 MFI | 10500 MFI | 16900 MFI | 32 MFI | 65 MFI |  |  |  | H4H18446P2 (antibody, human IgG4, V domains shown, human IgG4 Fc) VH: EVQLVESGGGLVQPGGSLRLSCAASGFTFSNYGMTWVRQAPGKGLEWVSAITGGGGSTYYSNSVKGRFTISRDNSKNTVYLRMNSVRAEDTAVYYCAKYKWNFVDDWGQGTTVTVSS VL: not shown |
| 18900 MFI | 6250 MFI |  | 25 MFI |  | 8880 MFI | 6570 MFI |  | H4H18438P2 (antibody, V domains shown) VH: QVQLVESGGGVVQPGRSLRLSCAASGFSFNTYGMHWVRQAPGKGLEWVTIIWYDGSIKYYADSVKGRFTISRDNSKNTLYLQMNSLRAEDTAVYYCARGGYSGYLYFDYWGQGTLVTVSS VL: not shown |
| 30 MFI | 6570 MFI | 14500 MFI | 230 MFI | 17 MFI | 40 MFI | 22 MFI |  | H4H18445P2 (antibody, human IgG4, V domains shown, human IgG4 Fc) VH: QVQLQESGPGLVKPSQTLSLTCTVSGGSISSGGDYWSWIRQLPGKGLEWIGYIYYSGSAYYNPSLKSRGTISIDTSKNQFSLKLTSVTAADTAVYFCVKLRFLEWFLGGWFGPWGQGTLVTVSS VL: not shown |
| 16000 MFI | 4890 MFI | 37 MFI | 14 MFI | 39 MFI | 5500 MFI | 3330 MFI |  | H4H18417P2 (antibody, V domains shown) VH: QVQLVESGGGVVQPGRSLRLSCAASGFTFSTYGMHWVRQAPGKGLEWVSVISYDESNKYYADSVKGRFTISRDNSKNALYLQMNSLRNEDTAVYYCARDRPFGLVTGWFDPWGQGTLVTVSS VL: not shown |
| 1250 MFI | 3300 MFI | 8 MFI | 20 MFI | 91 MFI | 14 MFI | 938 MFI | 3.65e-10 M | H4H17319P2 (antibody, V domains shown, also called REGN4461) VH: QVQLVESGGSVVQPGRSLRLSCAASGFTFSTYAMYWVRQTPGKGLEWVAVLYSDGSNKYYIDSVKGRFTISRDTSTNTLYLQMSSLRADDSALYYCARLNWDYWYFDLWGRGTLVTVSS VL: not shown |
| 2930 MFI | 7980 MFI | 43 MFI | 13 MFI | 15 MFI | 42 MFI | 2060 MFI |  | H4H18449P2 (antibody, human IgG4, V domains shown, human IgG4 Fc) VH: EVQLVESGGGLVQPGGSLRLSCVASGFTFNKYDMHWVRQTTGKGLEWVSGIDTDGDTYYPGSVKGRFTISRENAENSLYLQMNGLRVGDTAVYYCARWPWSGFYGAFDIWGQGTMVTVSS VL: not shown |
| 4720 MFI | 7600 MFI | 110 MFI | 6 MFI | 16 MFI | 74 MFI | 2560 MFI | 2.66e-10 M | H4H16650P2 (antibody, V domains shown) VH: QVQLVESGGGVVQPGKSLRLSCVASGFTFSSDAMYWVRQAPGKGLEWVAVIYYDGNYQYYEDSVKGRFTISRDNSQNTLDLQMNSLRVDDTAVYFCARLNWDYWYLDLWGRGTLVTVSS VL: not shown |
| 4390 MFI | 7510 MFI | 42 MFI | 10 MFI | 33 MFI | 34 MFI | 2800 MFI | 2.49e-10 M | H4H16679P2 (antibody, V domains shown) VH: QVQLVESGGGVVQPGRSLRLSCTASGFTFSSYAMYWVRQAPGKGLEWVSVIYYDGSYKYYADSVKGRFTISRDNSKNTLYLQMDSLRAEDTAVYYCASYNWNYWYFDFWGRGTLVTVSS VL: not shown |
| 2650 MFI | 4700 MFI | 14 MFI | 40 MFI | 116 MFI | 15 MFI | 1750 MFI | 3.68e-10 M | H4H17321P2 (antibody, V domains shown) VH: QVQLVESGGGVVQPGRSLRLSCEASGFSSSDNAMYWVRQAPGKGLEWVSVIYHDGSYKYYEDSVKGRFTIARDNSKNTLYLQMNSLRAEDTAVYYCARYNWNHWYFDVWGRGTLVTVSS VL: not shown |
